Data taken from PMC9657779, “Regulatory Role of Sphingosine-1-Phosphate and C16:0 Ceramide, in Immunogenic Cell Death of Colon Cancer Cells Induced by Bak/Bax-Activation” (Cancers, 2022).

Target: the molecule itself
Experiment: non-reducing SDS-PAGE and Western blot; whole cell lysates of DLD-1 cells treated with ABT/AZD or MTX, with or without PF-543 (also thapsigargin, fumonisin B1; CerS6 knock-out cells), under non-reducing conditions, blotted for CRT; disulfide-linked dimer

B1: calreticulin (natural protein, human (endogenous in DLD-1), UniProt P27797 18-417, looked up)
chain: EPAVYFKEQFLDGDGWTSRWIESKHKSDFGKFVLSSGKFYGDEEKDKGLQTSQDARFYALSASFEPFSNKGQTLVVQFTVKHEQNIDCGGGYVKLFPNSLDQTDMHGDSEYNIMFGPDICGPGTKKVHVIFNYKGKNVLINKDIRCKDDEFTHLYTLIVRPDNTYEVKIDNSQVESGSLEDDWDFLPPKKIKDPDASKPEDWDERAKIDDPTDSKPEDWDKPEHIPDPDAKKPEDWDEEMDGEWEPPVIQNPEYKGEWKPRQIDNPDYKGTWIHPEIDNPEYSPDPSIYAYDNFGVLGLDLWQVKSGTIFDNFLITNDEAYAEEFGNETWGVTKAAEKQMKDKQDEEQRLKEEEEDKKRKEEEEAEDKEDDEDKDEDEEDEEDKEEDEEEDVPGQAKDEL
notes: calreticulin (CRT), the normally ER resident chaperone, endogenous in human colorectal DLD-1 cells; Seen as a disulfide-linked dimer on Western blots run under non-reducing conditions; also called CRT; ectoCRT; source: endogenous, DLD-1 whole cell lysate (RIPA)
stoichiometry N: 2
